T1: ldLIMP2 (Homo sapiens, UniProt Q14108)
T1 construct: Purified luminal domain LIMP-2 (1d-LIMP2) was custom made (Sino Biological Inc., PRC.); purchased Sino Biological Inc
T1 sequence (Q14108 28-433 limits assumed): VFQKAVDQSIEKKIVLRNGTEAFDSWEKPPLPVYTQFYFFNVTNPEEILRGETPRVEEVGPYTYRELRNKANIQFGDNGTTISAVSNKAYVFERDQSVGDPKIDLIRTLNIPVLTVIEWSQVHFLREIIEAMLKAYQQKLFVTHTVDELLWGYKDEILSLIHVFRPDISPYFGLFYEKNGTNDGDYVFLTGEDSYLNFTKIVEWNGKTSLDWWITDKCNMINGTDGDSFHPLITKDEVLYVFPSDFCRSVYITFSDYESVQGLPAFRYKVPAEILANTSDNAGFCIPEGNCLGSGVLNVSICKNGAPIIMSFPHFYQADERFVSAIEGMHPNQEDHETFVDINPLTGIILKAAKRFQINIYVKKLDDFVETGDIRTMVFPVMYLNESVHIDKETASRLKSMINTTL


Columns and labels:
ldLIMP2 = biological target: T1, ldLIMP2; experiment: Fluorescence polarization binding of DSPIIV GCase peptides to ldLIMP-2; conditions: for binding to ldLIMP2 by change in fluorescence polarization (δmP), in words: ldLIMP2 fixed at 50 nM, peptide up to 250 nM, FIG. 7A
Protocol: FIG. 7A-FIG. 7C: Binding and competition of fluorescent labeled or unlabeled DSPIIV (SEQ ID NO 15) GCase peptides to ldLIMP2. The change (δmP) in fluorescence polarization is plotted on the ordinate and the increasing concentrations of the various peptides are on the abscissa. FIG. 7A depicts saturation kinetics under conditions in which the concentration of ldLIMP2 (50 nM) was fixed. […] FIG. 7B depicts a similar study using unlabeled peptides as competitors. […] Each of the unlabeled peptides “competed” with the labeled peptides in the expected ratios. FIG. 7C depicts a competition study in which labeled (WT*) and unlabeled (WT) peptides were used in complementary competition studies.
FIG. 9: Effect pH on binding WT and alanine substituted DSPIIV (SEQ ID NO 15) peptides to ldLIMP2. […] In comparison, incremental decreases were evident in ldLIMP2 binding at pH=6.8, the approximate pH of the ER/cis-Golgi, as follows: the triple mutant (ASPAAV) having the lowest binding (<10% of WT), the DSPAIV (SEQ ID NO 17) (I402A) and DSPIAV (SEQ ID NO 18) (I403A) mutants being intermediate (˜40-50% of WT), and ASPIIV (SEQ ID NO 16) (D399A) having the least change (˜50-60% of WT), relative to WT.
FIG. 12: Stoichiometry between ldLIMP2 and DSPIIV (SEQ ID NO 15). The peptide concentration giving 50% of maximal binding to ldLIMP2 (ordinate) and the concentration of ldLIMP2 (abscissa) have a 1:1 ratio.
Fluorescence Polarization: The DSPIIV (SEQ ID NO 15) and its mutants, and DDQRLLL (SEQ ID NO 14) peptides (FITC labeled or non-labeled) were synthesized (American Peptide Co., Vista, Calif.). Lyophilized peptides were solubilized in acetonitrile and then were diluted at least 10,000-fold into the reactions for fluorescence polarization assessments. The reactions were done at least in duplicate at various peptide and LIMP-2 concentrations (SpectraMax M5, Molecular Device). Fluorescence polarization data were collected and analyzed with SoftMax Pro 5.0 software. Reaction mixtures contained 100 mM phosphate, pH 6.8 and 1 mM DTT.

[1] = system: Gba1 null/null mouse fibroblasts; experiment: Immunofluorescence co-localization of expressed GCase constructs (lysosome vs ER/Golgi); type: cell-based; conditions: for Pearson Indices for co-localization to the lysosome, in words: DSPIIV variants, FIG. 10B; for co-localization to / retention in the ER/Golgi, in words: calnexin or calreticulin; for localization of GCase DSPIIV variants to the lysosome (Lamp1 / LIMP-2 co-localization), in words: transient transfection, FIG. 10A
From the text: Immunofluorescence studies (IF): Mouse Gba1 null/null were used for the host cells for all transfection experiments. pCMV-AC-GFP Mammalian cell expression vector was used for expression of various GCases that included the TKD region (amino acids 407, 408 and 409) or the DSPIIV (SEQ ID NO 15) region (amino acids 399-404). Direct-labeled first antibodies were applied for IF detection; including anti-human GCase, -Calreticulin, -calnexin, -LIMP2, and -Lamp1. Lysotracker and ER tracker (Invitrogen) were also used as indicated. Analyses were done with a Zeiss AxioVert 200M with ApoTome. Co-localization analyses to obtain Pearson Indices were conducted using a module in the Axiovision 4.8 software.
Initial studies to localize the targeting peptide were conducted with GCase-GFP fusion constructs that had COOH-terminal deletions of GCase (FIG. 1). The constructs are designated as GCase-XX or XXX where the Xs represent the number of GCase amino acids deleted from the COOH-terminus. These constructs were transfected into and expressed in Gba1 null/null mouse fibroblasts using the CMV promoter (pCMV-AC-GFP or YFP) Immunofluorescence analyses using anti-human GCase IgG (green) and Lysotracker (Red) were used for colocalization of GCase to the lysosome (Red) or GCase (green) and Calreticulin or Calnexin (Red) for colocalization to the ER or Golgi (FIG. 2). […] Since LIMP-2 is the receptor for targeting of GCase to the lysosome, our working hypothesis was that the peptide sequence for binding of GCase to LIMP-2 was located within amino acids 347-422.

Gba1−/− cells = experiment: Proportion of GCase protein in cells and media; type: cell-based, mouse; conditions: for Total GCase: cellular + media; for Total GCase / Cellular GCase / Media GCase: mean ± SD, n = 3; for Cellular GCase / Media GCase: total ng
From the text: (§1) FIG. 11A-FIG. 11C: Secretion and retention of GCase with alanine variants in the TDK (FIG. 11A) or DSPIIV (SEQ ID NO 15) (FIG. 11B and FIG. 11C) sequences. FIG. 11A depicts activities in the media of Gba1−/− fibroblasts following transient transfections of each of the specified alanine substituted GCases in the TDK region. […] FIG. 11B depicts in the Left Panel: Activities in the media following transient transfections of various DSPIIV (SEQ ID NO 15) alanine substituted GCases and the % of GCase secreted. The latter was calculated as {ng GCase (in media)/[ng GCase (in media)+ng (GCase in lysates)]}×100 (also see Table 2). […] The transfections alone (Null+lipo) had no effect. […] FIG. 11C deicts in cellular lysate GCase activities from the various alanine substituted GCases in the DSPIIV (SEQ ID NO 15) sequence as indicated. […] The doubly alanine substituted GCase had little intracellular activity, i.e., nearly all the GCase was secreted into the media.

Gba1−/− fibroblasts = experiment: GCase activity in media and cell lysates after transient transfection (secretion and retention); type: cell-based, mouse; conditions: cell lysates; FIG. 11C
From the text: as §1
Enzyme Assays: Cell pellets were homogenized in 0.25% Na-taurocholate and 0.25% Triton X-100. GCase activities were determined fluorometrically with 4 mM 4MU-Glc in 0.2M/0.1M citric-phosphate, pH 5.6 (18, 54)

Row | binding to ldLIMP2 by change in fluorescence polarization (δmP), in words (ldLIMP2) | Molecule | Total GCase (Gba1−/− cells) | Cellular GCase (Gba1−/− cells) | Media GCase (Gba1−/− cells) | other results
1 | background changes | ASPAAV [triple alanine mutant of the DSPIIV peptide] |  |  |  | ldLIMP2 binding relative to WT peptide (ldLIMP2; pH 6.8, FIG. 9): < 10 % of WT
2 | little binding | ASPIIV |  |  |  | decrease of binding to ldLIMP-2 (ldLIMP2; pH 6.8, FIG. 9): 30-40%; ldLIMP2 binding relative to WT peptide (ldLIMP2; pH 6.8, FIG. 9): 50-60 % of WT
3 | did not show saturation up to 250 nM | DSPAIV |  |  |  | 
4 | did not show saturation up to 250 nM | DSPIAV |  |  |  | 
5 |  | D399A: human GCase variant with D399A (ASPIIV sequence) (protein, UniProt P04062 40-536, looked up, variant D399A) Lysosomal acid …: ARPCIPKSFGYSSVVCVCNATYCDSFDPPTFPALGTFSRYESTRSGRRMELSMGPIQANHTGTGLLLTLQPEQKFQKVKGFGGAMTDAAALNILALSPPAQNLLLKSYFSEEGIGYNIIRVPMASCDFSIRTYTYADTPDDFQLHNFSLPEEDTKLKIPLIHRALQLAQRPVSLLASPWTSPTWLKTNGAVNGKGSLKGQPGDIYHQTWARYFVKFLDAYAEHKLQFWAVTAENEPSAGLLSGYPFQCLGFTPEHQRDFIARDLGPTLANSTHHNVRLLMLDDQRLLLPHWAKVVLTDPEAAKYVHGIAVHWYLDFLAPAKATLGETHRLFPNTMLFASEACVGSKFWEQSVRLGSWDRGMQYSHSIITNLLYHVVGWTDWNLALNPEGGPNWVRNFVASPIIVDITKDTFYKQPMFYHLGHFSKFIPEGSQRVGLVASQKNDLDAVALMHPDGSAVVVVLNRSSKDVPLTIKDPAVGFLETISPGYSIHTYLWRRQ | 50 ± 4 ng | 32 ± 4 ng | 18 ± 2 ng | Pearson Indices for co-localization to the lysosome, in words [1]: little co-localization to the lysosome; co-localization to / retention in the ER/Golgi, in words [1]: significant retention in the ER/Golgi; localization of GCase DSPIIV variants to the lysosome (Lamp1 / LIMP-2 co-localization), in words [1]: Essentially identical results
6 |  | I402A/I403A: human GCase double mutant I402A + I403A (DSPAAV sequence) (protein) ARPCIPKSFGYSSVVCVCNATYCDSFDPPTFPALGTFSRYESTRSGRRMELSMGPIQANHTGTGLLLTLQPEQKFQKVKGFGGAMTDAAALNILALSPPAQNLLLKSYFSEEGIGYNIIRVPMASCDFSIRTYTYADTPDDFQLHNFSLPEEDTKLKIPLIHRALQLAQRPVSLLASPWTSPTWLKTNGAVNGKGSLKGQPGDIYHQTWARYFVKFLDAYAEHKLQFWAVTAENEPSAGLLSGYPFQCLGFTPEHQRDFIARDLGPTLANSTHHNVRLLMLDDQRLLLPHWAKVVLTDPEAAKYVHGIAVHWYLDFLAPAKATLGETHRLFPNTMLFASEACVGSKFWEQSVRLGSWDRGMQYSHSIITNLLYHVVGWTDWNLALNPEGGPNWVRNFVDSPAAVDITKDTFYKQPMFYHLGHFSKFIPEGSQRVGLVASQKNDLDAVALMHPDGSAVVVVLNRSSKDVPLTIKDPAVGFLETISPGYSIHTYLWRRQ | 24 ± 4 ng | 4 ± 1 ng | 20 ± 3 ng | Pearson Indices for co-localization to the lysosome, in words [1]: little co-localization to the lysosome; co-localization to / retention in the ER/Golgi, in words [1]: significant retention in the ER/Golgi; localization of GCase DSPIIV variants to the lysosome (Lamp1 / LIMP-2 co-localization), in words [1]: Essentially identical results; GCase activity in cell lysates relative to WT (Gba1−/− fibroblasts): < 5 % of WT
7 |  | Mouse WT: mouse wild type GCase (protein, UniProt P17439 20-515, looked up) Lysosomal acid …: AQPCIPKSFGYSSVVCVCNASYCDSLDPVTLPALGTFSRYESTRRGRRMELSVGAIQANRTGTGLLLTLQPEKKFQKVKGFGGAMTDATALNILALSPPTQKLLLRSYFSTNGIEYNIIRVPMASCDFSIRVYTYADTPNDFQLSNFSLPEEDTKLKIPLIHQALKMSSRPISLFASPWTSPTWLKTNGRVNGKGSLKGQPGDIFHQTWANYFVKFLDAYAKYGLRFWAVTAENEPTAGLFTGYPFQCLGFTPEHQRDFISRDLGPALANSSHDVKLLMLDDQRLLLPRWAEVVLSDPEAAKYVHGIAVHWYMDFLAPAKATLGETHRLFPNTMLFASEACVGSKFWEQSVRLGSWDRGMQYSHSIITNLLYHVTGWTDWNLALNPEGGPNWVRNFVDSPIIVDIPKDAFYKQPMFYHLGHFSKFIPEGSQRVALVASESTDLETVALLRPDGSAVVVVLNRSSEDVPLTISDPDLGFLETVSPGYSIHTYLWRRQ | 64 ± 7 ng | 64 ± 7 ng | 0 ng | % Secreted (Gba1−/− cells; ng GCase in media / (ng in media + ng in lysates) × 100): 0%
